Among the data in US20260297165 (published 2026) are Kd values, retold here.

B1: sCD59 wild-type, in-house purified (protein)
chain: MGIQGGSVLFGLLLVLAVFCHSGHSLQCYNCPNPTADCKTAVNCSSDFDACLITKAGLQVYNKCWKFEHCNFNDVTTRLRENELTYYCCKKDLCNFNEQLEN
B2: Vector KRE sCD59-6xHis wild-type (protein)
chain: MGIQGGSVLFGLLLVLAVFCHSGHSLQCYNCPNPTADCKTAVNCSSDFDACLITKAGLQVYNKCWKFEHCNFNDVTTRLRENELTYYCCKKDLCNFNEQLENHHHHHH
B3: Vector MTC sCD59 T51G-6xHis (protein)
chain: MGIQGGSVLFGLLLVLAVFCHSGHSLQCYNCPNPTADCKTAVNCSSDFDACLITKAGLQVYNKCWKFEHCNFNDVGTRLRENELTYYCCKKDLCNFNEQLENHHHHHH
B4: Vector MTA sCD59 S20G-6xHis (protein)
chain: MGIQGGSVLFGLLLVLAVFCHSGHSLQCYNCPNPTADCKTAVNCGSDFDACLITKAGLQVYNKCWKFEHCNFNDVTTRLRENELTYYCCKKDLCNFNEQLENHHHHHH
B5: Vector MTE sCD59 S20G,T51G-6xHis (protein)
chain: MGIQGGSVLFGLLLVLAVFCHSGHSLQCYNCPNPTADCKTAVNCGSDFDACLITKAGLQVYNKCWKFEHCNFNDVGTRLRENELTYYCCKKDLCNFNEQLENHHHHHH
B6: Vector KRM vsCD59 K38R-6xHis (protein)
chain: MGIQGGSVLFGLLLVLAVFCHSGHSLQCYNCPNPTADCKTAVNCSSDFDACLITKAGLQVYNRCWKFEHCNFNDVTTRLRENELTYYCCKKDLCNFNEQLENHHHHHH
B7: Vector KRG vsCD59 N18Q-6xHis (protein)
chain: MGIQGGSVLFGLLLVLAVFCHSGHSLQCYNCPNPTADCKTAVQCSSDFDACLITKAGLQVYNKCWKFEHCNFNDVTTRLRENELTYYCCKKDLCNFNEQLENHHHHHH
B8: sCD59 (His)10 wild-type, commercial (protein)
chain: LQCYNCPNPTADCKTAVNCSSDFDACLITKAGLQVYNKCWKFEHCNFNDVTTRLRENELTYYCCKKDLCNFNEQLEN

In the test the target is C9 (human, UniProt P02748). The experiment in a line: other (MSD ECL).
Chain of C9 (P02748 22-559): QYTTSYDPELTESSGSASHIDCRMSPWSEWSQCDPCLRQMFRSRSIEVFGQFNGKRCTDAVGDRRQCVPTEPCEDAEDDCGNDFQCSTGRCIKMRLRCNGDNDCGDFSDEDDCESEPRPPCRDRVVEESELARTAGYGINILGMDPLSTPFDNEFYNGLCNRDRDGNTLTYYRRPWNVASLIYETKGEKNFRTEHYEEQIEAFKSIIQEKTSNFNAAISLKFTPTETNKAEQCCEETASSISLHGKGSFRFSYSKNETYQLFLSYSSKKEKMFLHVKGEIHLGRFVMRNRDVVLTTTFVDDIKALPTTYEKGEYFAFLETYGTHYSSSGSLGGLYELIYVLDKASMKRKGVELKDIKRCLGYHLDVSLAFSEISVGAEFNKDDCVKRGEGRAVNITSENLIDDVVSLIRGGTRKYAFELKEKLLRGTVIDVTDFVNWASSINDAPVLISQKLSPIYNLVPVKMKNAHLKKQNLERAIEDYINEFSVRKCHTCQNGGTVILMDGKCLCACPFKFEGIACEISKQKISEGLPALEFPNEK
Take B1: the affinity, expressed as Kd, was 38.6 nM.

B2: the Kd (in general, the free concentration of one partner at which half of the binding sites on the other are occupied at equilibrium, for simple one-to-one binding) came to 34.3 nM. The result for B3 reads 23.7 nM; that for B4, 46.1 nM; that for B5, 28.9 nM. The result for B6 reads 39 nM; that for B7, 16 nM; that for B8, 33.1 nM.
